Measured values reported in article PMC9816786 (Molecular Metabolism, 2022).

Key:
[1] = target: T1, Human PCSK9 (full length), 6xHis-tagged, purified (human, UniProt Q8NBP7, biotinylated where it was immobilised for BLI (site not told)); assay: BLI; biotinylated P1.40 immobilised (0.25 μg/μL), PCSK9 or CHRD in solution, pH 7.5, 1:1 binding model; association 3600 s (PCSK9) or 1800 s (CHRD), dissociation 3600 s; details: both partners purified
T1 construct: human PCSK9, full length cDNA in pIRES2-EGFP; also called full-length PCSK9; proprotein convertase substilisin kexin 9; source: FreeStyle293 FS cells, transfected, purified (NiNTA, size-exclusion chromatography)

[2] = target: T2, CHRD (aa 449–693) of human PCSK9, 6xHis-tagged (human, UniProt Q8NBP7, biotinylated where it was immobilised for BLI (site not told)); assay: as above; details: both partners purified
T2 construct: human PCSK9, C-terminal Cys/His-rich domain, aa 449-693 as printed (modules M1 453-529, M2 530-603, M3 604-692); also called C-terminal Cys/His-rich domain; CHRD alone; source: FreeStyle293 FS cells, transfected, purified (NiNTA, size-exclusion chromatography)

[3] = target: T1, Human PCSK9 (full length), …; assay: SEC + other: SAXS; size exclusion chromatography followed by small angle X-ray scattering of PCSK9 alone or in complex with P1.40, in solution; details: both partners purified
CHRD D480A mutant = target: T3, CHRD D480A mutant (Homo sapiens (Human)., UniProt Q8NBP7, D480A); assay: flow cytometry on cells; P1.40 or its mutants expressed on yeast cells (HA-tagged), 6xHis-tagged CHRD or its mutants in solution; cell binding assays and FACS sorting for deep mutational scanning; details: one partner purified
T3 construct: human PCSK9 CHRD, aa 449-693 as printed for the parent construct; source: HEK293 cells

CHRD F456A mutant = target: T4, CHRD F456A mutant (Homo sapiens (Human)., UniProt Q8NBP7, F456A); assay: as above; details: one partner purified
T4 construct: human PCSK9 CHRD, aa 449-693 as printed for the parent construct; source: HEK293 cells

CHRD R476A mutant = target: T5, CHRD R476A mutant (Homo sapiens (Human)., UniProt Q8NBP7, R476A); assay: as above; details: one partner purified
T5 construct: human PCSK9 CHRD, aa 449-693 as printed for the parent construct; source: HEK293 cells

[4] = target: T6, Human CAP1 (cyclase associated protein 1), 6xHis-tagged, purified (human, UniProt Q01518 1-475, biotinylated where it was immobilised for BLI (site not told)); assay: BLI; biotinylated PCSK9 or biotinylated CHRD immobilised (0.2 μg/ml), CAP1 in solution, pH 7.5, association and dissociation 600 s; details: both partners purified
T6 construct: human adenylyl cyclase-associated protein 1 (CAP1), cDNA cloned into pCMV; also called adenylyl cyclase-associated protein 1; biotinylated CAP1; source: FreeStyle293 FS cells, transfected, purified (NiNTA, size-exclusion chromatography)
T6 sequence (Q01518 whole entry): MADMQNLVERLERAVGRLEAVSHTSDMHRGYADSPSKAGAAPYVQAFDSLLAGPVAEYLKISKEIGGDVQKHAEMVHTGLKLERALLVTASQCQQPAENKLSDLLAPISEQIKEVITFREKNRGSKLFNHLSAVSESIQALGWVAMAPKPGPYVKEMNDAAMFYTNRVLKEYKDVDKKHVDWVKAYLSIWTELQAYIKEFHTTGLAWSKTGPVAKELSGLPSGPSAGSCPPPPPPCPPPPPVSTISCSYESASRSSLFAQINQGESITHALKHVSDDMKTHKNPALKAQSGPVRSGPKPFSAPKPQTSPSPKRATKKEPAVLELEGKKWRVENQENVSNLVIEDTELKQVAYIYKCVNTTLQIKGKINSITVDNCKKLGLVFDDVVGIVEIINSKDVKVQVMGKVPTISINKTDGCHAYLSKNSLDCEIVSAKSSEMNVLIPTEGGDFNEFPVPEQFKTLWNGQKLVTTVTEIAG

B1: P1.40, CHRD-specific single domain antibody (nanobody), purified from E. coli (VHH)
VHH: QVKLEESGGGLVQAGGSLRLSCSPSDRTFSAYAMGWFRQVPGREREFVATIRDSDASIYYTDSVKGRFTISRDNAKNTVYLQMNSLIPDDTAVYYCAARQYYSGRVYSTFREEYDYWGQGTQVTVSS
notes: TEV site ENLYFQ/G: a glycine may be left at the N-terminus after cleavage; also called nanobody P1.40; biotinylated P1.40; source: E. coli BL21 (DE3) pLysS, purified (HisTrap, TEV cleavage, size-exclusion chromatography); not shown: DsbC, N-terminal, cleaved; His6, N-terminal, cleaved
Kd [1]: 5.6 nM
koff [1]: 9e-06 s⁻¹
kon [1]: 1600 M⁻¹ s⁻¹
Kd [2]: 0.0903 nM
koff [2]: 3.5e-05 s⁻¹
kon [2]: 380000 M⁻¹ s⁻¹
stoichiometry N [3]: 1

B2: P1.40 expressed on yeast cells (cell surface, HA-tagged) (VHH)
VHH: B1 VHH
fold decrease of affinity against wild-type CHRD (CHRD D480A mutant): 142 fold
fold decrease of affinity against wild-type CHRD (CHRD F456A mutant): 12 fold
fold decrease of affinity against wild-type CHRD (CHRD R476A mutant): 17 fold

B3: CHRD (aa 449–693) of human PCSK9, 6xHis-tagged (domain or fragment, UniProt Q8NBP7 449-692, looked up)
chain: HGAGWQLFCRTVWSAHSGPTRMATAVARCAPDEELLSCSSFSRSGKRRGERMEAQGGKLVCRAHNAFGGEGVYAIARCCLLPQANCSVHTAPPAEASMGTRVHCHQQGHVLTGCSSHWEVEDLGTHKPPVLRPRGQPNQCVGHREASIHASCCHAPGLECKVKEHGIPAPQEQVTVACEEGWTLTGCSALPGTSHVLGAYAVDNTCVVRSRDVSTTGSTSEGAVTAVAICCRSRHLAQASQELQ
modifications: biotinylated where it was immobilised for BLI (site not told)
notes: human PCSK9, C-terminal Cys/His-rich domain, aa 449-693 as printed (modules M1 453-529, M2 530-603, M3 604-692); also called C-terminal Cys/His-rich domain; CHRD alone; source: FreeStyle293 FS cells, transfected, purified (NiNTA, size-exclusion chromatography)
Kd [4]: 1260 nM
koff [4]: 0.0007 s⁻¹
kon [4]: 560 M⁻¹ s⁻¹
